Reference: paper PMC10779143, “Collagen-like Osteoclast-Associated Receptor (OSCAR)-Binding Motifs Show a Co-Stimulatory Effect on Osteoclastogenesis in a Peptide Hydrogel System” (International Journal of Molecular Sciences, 2023)

Legend:
Raw 264.7 cells [1] = conditions: cited from earlier work
Raw 264.7 cells [2] = assay: TRAP staining / osteoclast morphology of Raw 264.7 cells on peptide-coated tissue culture plastic; type: cell-based
Method: Raw 264.7 cells were cultured and passaged as previously described. Cell adhesion to OP1_Hyp and OP1_Pro was assessed as shown by Barrow et al.. Briefly, 48-well plates were coated with 10 µg/mL of OSCAR-binding peptides overnight at 4 °C. The excess peptide was then removed by washing with PBS before adding 1% BSA to block non-specific binding sites for 1 h at 25 °C. Raw 264.7 cells were then resuspended at a concentration of 2 × 10^5 cells/mL and added to the well. Cells were cultured with different concentrations of human RANKL (hRANKL) (catalogue number: 310-01 from Peprotech, London, UK) (0–100 ng/mL) for up to 5 days to assess the contribution of the OSCAR-binding peptides OP1_Hyp and OP1_Pro to the differentiation of Raw 264.7 cells to mature OCs.
After 5 days of post-culture, Raw 264.7 cells were fixed in 4% PFA for 15 min at room temperature. TRAP was stained following the manufacturer’s protocol and evaluated by light microscopy (ThermoFisher, Swindon, UK). Multinucleated TRAP+ cells containing more than three nuclei were scored as mature OCs.

Molecule | OSCAR and TRAP levels, 50 ng/mL RANKL only (Raw 264.7 cells [1]; days 1-4, ref Lampiasi et al. [35]) | Lowest optimal concentration for osteoclastic cell formation (Raw 264.7 cells [1]; ref Song et al. [29]) [ng/mL] | Differentiation, 1 ng/mL hRANKL (Raw 264.7 cells [2]; 5 days on TCP, 1 ng/mL hRANKL) | Average cell diameter of treated cells (Raw 264.7 cells [2]; 5 days, 100 ng/mL hRANKL, TCP with OP1_Hyp or OP1_Pro, untreated cells 38.1 ± 8.8 µm) [µm]
RANKL: RANK ligand (RANKL), as used in cited studies (protein, UniProt O14788 140-317, looked up) Tumor necrosis factor ligand …: IRAEKAMVDGSWLDLAKRSKLEAQPFAHLTINATDIPSGSHKVSLSSWYHDRGWAKISNMTFSNGKLIVNQDGFYYLYANICFRHHETSGDLATEYLQLMVYVTKTSIKIPSSHTLMKGGSTKYWSGNSEFHFYSINVGGFFKLRSGEEISIEVSNPSLLDPDQDATYFGAFKVRDID | increased significantly between days 1 and 2 of culture before decreasing sharply on days 3 and 4 | 30 |  | 
hRANKL: human RANKL (hRANKL) (catalogue number: 310-01 from Peprotech, London, UK) (protein, UniProt O14788 69-317, looked up, extracellular domain) extracellular domain: YFRAQMDPNRISEDGTHCIYRILRLHENADFQDTTLESQDTKLIPDSCRRIKQAFQGAVQKELQHIVGSQHIRAEKAMVDGSWLDLAKRSKLEAQPFAHLTINATDIPSGSHKVSLSSWYHDRGWAKISNMTFSNGKLIVNQDGFYYLYANICFRHHETSGDLATEYLQLMVYVTKTSIKIPSSHTLMKGGSTKYWSGNSEFHFYSINVGGFFKLRSGEEISIEVSNPSLLDPDQDATYFGAFKVRDID |  |  | No differentiation was observed | 273.9 ± 73.4
